# Data as given in US20100036111.
# Like-named read-outs stand apart in the source and are kept apart here.
# Columns and labels:
# [1] = target: Klenow fragment exo- (KF exo-) (UniProt P00582); details: n=Ds (7-(2-thienyl)-imidazo[4,5-b]pyridine); dPa'TP insertion Vmax/KM; 10 mM MgCl2 pH 7.5 37C
# [2] = target: Klenow fragment exo- (KF exo-) (UniProt P00582); details: n=Pa' (4-propynylpyrrole-2-carbaldehyde); dDsTP insertion Vmax/KM; 10 mM MgCl2 pH 7.5 37C
# [3] = target: Klenow fragment exo- (KF exo-) (UniProt P00582); details: n=Pa (pyrrole-2-carbaldehyde); dDsTP insertion; Vmax/KM as printed (KM 26 uM and Vmax 28 imply 1.1e6); 10 mM MgCl2 pH 7.5 37C
# Chain of Klenow fragment exo- (KF exo-) (P00582 324-928): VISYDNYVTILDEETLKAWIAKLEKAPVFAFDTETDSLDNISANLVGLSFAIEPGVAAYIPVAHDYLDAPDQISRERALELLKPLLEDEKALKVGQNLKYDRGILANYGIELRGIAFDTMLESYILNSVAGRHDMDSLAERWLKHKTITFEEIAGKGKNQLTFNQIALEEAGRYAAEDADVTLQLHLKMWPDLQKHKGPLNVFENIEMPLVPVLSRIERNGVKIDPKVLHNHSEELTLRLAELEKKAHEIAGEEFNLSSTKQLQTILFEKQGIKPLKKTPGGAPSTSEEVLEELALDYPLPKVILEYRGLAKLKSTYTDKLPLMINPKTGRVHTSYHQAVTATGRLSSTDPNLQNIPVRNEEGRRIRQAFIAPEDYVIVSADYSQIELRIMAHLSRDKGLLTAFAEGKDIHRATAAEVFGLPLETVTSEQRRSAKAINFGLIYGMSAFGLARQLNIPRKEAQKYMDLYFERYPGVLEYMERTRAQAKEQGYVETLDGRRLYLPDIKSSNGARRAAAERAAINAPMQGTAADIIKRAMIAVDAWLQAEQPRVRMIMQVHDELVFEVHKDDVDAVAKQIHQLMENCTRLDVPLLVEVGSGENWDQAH
sequence,measurement,setting,value
AGCTCTNTCTTCCTCCCTATAGTGAGTCGTATTAT / ACTCACTATAGGGAGGAAGA [temp35Ds-1/primer],activity,[1],260000 %/min/M
TCGAGANAGAAGCTCCCTATAGTGAGTCGTATTAT / ACTCACTATAGGGAGCTTCT [temp35Pa'-2/primer],activity,[2],880000 %/min/M
TCGAGANAGAAGCTCCCTATAGTGAGTCGTATTAT / ACTCACTATAGGGAGCTTCT [temp35Pa-2/primer],activity,[3],11000 %/min/M
